In assay [1] the target is Jurkat-EBOV GPCL (Zaire ebolavirus (EBOV), Makona).
The target in assay [2] is Jurkat-EBOV GP (Zaire ebolavirus (EBOV), Makona).

rEBOV-520 LALA (antibody), sequence (VH): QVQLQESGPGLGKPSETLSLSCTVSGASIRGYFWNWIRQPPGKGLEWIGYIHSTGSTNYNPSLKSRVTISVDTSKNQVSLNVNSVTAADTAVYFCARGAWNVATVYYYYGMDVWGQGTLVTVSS
rEBOV-520 LALA (antibody), sequence (VL): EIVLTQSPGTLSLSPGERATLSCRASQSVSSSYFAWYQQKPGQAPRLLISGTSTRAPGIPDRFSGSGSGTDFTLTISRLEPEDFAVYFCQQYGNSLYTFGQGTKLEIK

MR72 (antibody) came in with a fold decrease in binding in assay [1] of 2.8 fold.

rEBOV-520 LALA (antibody) registered a fold increase in binding in assay [2] of less than 4.6 fold.

The values above are taken from patent US20210403538A1.
